The subject of this data set is His51. Kind of data set: NMR. As to conditions: 298 K; 100 mM NaCl, 5 mM CaCl2; 20 mM deuterated MES (pH 5.5, 6.0, 6.5, 7.2, 8.5) or 20 mM deuterated Tris (pH 8.5), 0.02% NaN3; Inhibitor-bound (Bz-Nle-Lys-Arg-Arg-B(OH)2, a tetrahedral transition-state mimic), NS2B-bound, folded. Two complex forms are in equilibrium.

As for “NS3 serine protease domain (NS3pro) in complex with NS2B cofactor segment (Dengue virus type 2 (DENV2))”, the pKa entry was “remain fully protonated over the investigated pH range (5.5–8.5)”.
